Source: patent publication US8304236B2, “Modified biotin-binding protein” (Japan Tobacco Inc., priority 2008, dated 2012)
“Also recorded” adds a separate entry of the source.

Experiments:
[1] = Isoelectric focusing electrophoresis (pI observed); type: physicochemical; conditions: pH 3 to 10 gel
Procedure: The isoelectric point of each low-pI TM2 was measured by isoelectric focusing electrophoresis using an XCell SureLock Mini-Cell (Invitrogen). In accordance with the instruction, each low-pI TM2 (500 ng) and an IEF sample buffer (pH 3 to 10 (2×), Invitrogen) were mixed and were added to a polyacrylamide gel (pH 3 to 10, IEF Gel, Invitrogen) at a pH ranging from 3 to 10, followed by electrophoresis at a variable voltage of 100 V for 1 hour, 200 V for 1 hour, and 500 V for 45 minutes in this order.
After the electrophoresis, the gel was shaken in a blotting buffer (0.7% acetic acid) for 10 minutes and then was transferred onto a PVDF membrane at 10 V for 1 hour using an XCell ll Blot Module (Invitrogen). The PVDF membrane was subjected to reaction with anti-TM2 rabbit antibody (PCT/W2006/326260) serving as a primary antibody and with alkaline phosphate-labeled anti-rabbit IgG antibody (BIO-RAD) serving as a secondary antibody, followed by detection of bands with Alkaline Phosphatase Substrate Kit II
The isoelectric point of the high-affinity TM2 was measured by isoelectric focusing electrophoresis using an XCell SureLock Mini-Cell (Invitrogen). […] The electric point of TM2 D40N having replacement of the […] amino acid was higher than that of the wild type TM2 also in the isoelectric focusing electrophoresis.
The isoelectric point of HALU TM2 was measured by isoelectric focusing electrophoresis using an XCell SureLock Mini-Cell (Invitrogen). In accordance with the instruction, bands of each HALU TM2 (4 μg) were detected by CBB staining. […] The observed isoelectric point of TM2 D40N was 9.7, and was reduced to 8.9 after introduction of mutation of R104E and was reduced to 7.3 to 7.5 after further introduction of mutation of K141E.

human serum protein = assay: Non-specific adsorption of low-pI TM2 to human serum protein-immobilized magnetic beads; type: binding; conditions: for decrease of adsorption to human serum protein compared to the wild type TM2 / non-specific binding to human serum protein compared to TM2: FIG. 1; for non-specific binding and adsorption, % of that of the wild type TM2: summary of Example 1, paragraphs 1-9) and 1-11); for Non-specific binding of serum protein (%): wild type TM2 = 100
Procedure: In this embodiment, non-specific binding to human serum was investigated as non-specific adsorption of low-pI TM2 to serum protein-immobilized magnetic beads. Specifically, in order to investigate the non-specific binding of low-pI TM2, the amount of low-pI TM2 adsorbed to magnetic beads to which human serum protein was covalently bonded was measured. TM2 K26A, TM2 K73Q, TM2 R104E, TM2 K141E, and TM2 R104EK141E, which were highly expressed in Escherichia coli, were used as the low-pI TM2 to be investigated.
Human serum protein and magnetic beads were bound to each other as follows. Magnetic beads having surfaces coated with carboxyl groups (Dynabeads M-270 Carboxylic Acid, Dynal, 210 μL) were washed with 0.01 N sodium hydroxide (210 μL) for 10 minutes and then with ultrapure water (210 μL) for 10 minutes three times. To the washed magnetic beads, 1-ethyl-3-(3-dimethylaminopropyl)carbodiimide hydrochloride (EDC, PIERCE) dissolved in cooled ultrapure water was added into a final concentration of 0.2 M, and the mixture was shaken at room temperature for 30 minutes. Then, the magnetic beads were washed with cooled ultrapure water (210 μL) and then with 50 mM MES buffer (pH 5.0, 210 μL).
To the magnetic beads, 1 mg/mL human serum protein (CHEMICON, 210 μL) dialyzed with 50 mM MES buffer (pH 5.0) was added. The mixture was shaken at room temperature for 30 minutes to covalently bind the human serum protein to the magnetic beads. The magnetic beads were collected with a magnet to remove the supernatant. The unreacted active groups on the beads were eliminated with 50 mM tris buffer (pH 7.0, 210 μL), and then the magnetic beads were blocked with a PBS buffer (420 μL) containing 0.5% BSA and 0.1% Tween 20. The magnetic beads were suspended in a PBS buffer (210 μL) to obtain human serum protein-immobilized magnetic beads.
The magnetic beads (7 μL) and 0.56 μg/mL of each low-pI TM2 (100 μL) were mixed for reaction at room temperature for 1 hour. The magnetic beads were collected with a magnetic, and the supernatant was removed. After washing with 20 mM potassium phosphate buffer (500 μL) containing 500 mM sodium chloride, the magnetic beads were mixed with 20 μL of 2×SDS sample buffer (250 mM Tris-HCl, pH 6.8, 20% 2-mercaptoethanol, 20% SDS, 20% glycerol), followed by heating at 95° C. for 20 minutes to dissociate the low-pI TM2 from the magnetic beads.
This sample was subjected to SDS-PAGE and then western blotting analysis to determine the amount of the low-pI TM2. Anti-tamavidin 2 rabbit antibody and alkaline phosphatase-labeled anti-rabbit IgG goat antibody were used as the primary antibody and the secondary antibody, respectively. The bands were detected with Alkaline Phosphatase Substrate Kit II <VECTOR Black> (VECTRO) and were quantified with Las-3000 (FUJIFILM).

[2] = Biotin-binding test (Biacore 3000, biotin-LC-BSA immobilized)
Procedure: High-purity BSA (Sigma, 2 mg) and NHS-LC-biotin (Pierce, 1 mg) were dissolved in 50 mM sodium borate (pH 8.0, 1 mL) and were incubated at 4° C. for 2 hours. The solution was put into a dialysis tube (MWCO 6-8,000) and was dialyzed with 50 mM sodium carbonate (pH 6.7) at 4° C. overnight. The resulting biotin-LC-BSA conjugate (MW: 67 kDa, 30 μM) was used as a ligand for a Biacore (registered trademark) biosensor.
Biotin-LC-BSA and BSA serving as a negative control were immobilized on CM5 sensor chips by amine coupling method. The amount for immobilization was adjusted to about 200 RU. The chips to which BSA was immobilized were disposed in flow cells 1 and 3, while the chips to which biotin-LC-BSA was immobilized were disposed in flow cells 2 and 4.
Accordingly, seven step measurement (3.125, 6.25, […], 25, 50, 100, and 200 nM) was conducted from the lowest concentration, without recycling steps. The data of BSA as reference was deducted from the data of BSA-LC-biotin. The measurement was performed at 25° C. The resulting sensorgrams were subjected to reaction kinetics analysis using analysis software BIAevaluation ver. 4.1 with a 1:1 binding model to calculate the binding rate constant (ka) and the dissociation rate constant (kd). The dissociation constant (KD) was determined from kd/ka. In the case where no recycling step is employed, the Rmax (maximum amount of binding analyte) decreases at each measurement. Accordingly, in the analysis, the Rmax was calculated by conducting local fitting for each concentration, and only the data of analyte concentrations that were approximated to the 1:1 binding model was employed.
TM2 and HALU TM2 used as analytes were prepared by purification with 2-iminobiotin agarose in accordance with a common method and dialysis with 20MM KPi (pH 7) overnight. The analytes were each adjusted to about 50 μg/mL in 10 mM acetate buffer (pH 5, Biacore).
The immobilization of the ligand and measurement and analysis of specific interaction with the analytes were conducted as in paragraph 2-7-2).

B1: TM2 K26A: TM2 mutant in which lysine at position 26 was replaced with alanine; SEQ ID NO: 4 (protein)
chain: MSDVQSSLTGTWYNELNSKMELTANADGTLTGKYLSKVGDVYVPYPLSGRYNLQPPAGQGVALGWAVSWENSKIHSATTWSGQFFSESSPVILTQWLLSSSTARGDVWESTLVGNDSFTKTAPTEQQIAHAQLHCRAPRLK
modifications: Synthetic TM2 K26A
[1]
  pI observed: 7.3 to 7.6
Human serum protein
  decrease of adsorption to human serum protein compared to the wild type TM2: 30%
  non-specific binding to human serum protein compared to TM2: significantly low
  non-specific binding and adsorption, % of that of the wild type TM2: about 60%
  Non-specific binding of serum protein (%): 68%

B2: TM2 K33TK37AR104E: TM2 mutant, lysine 33 to threonine, lysine 37 to alanine, arginine 104 to glutamic acid; SEQ ID NO: 14 (protein)
chain: MSDVQSSLTGTWYNELNSKMELTANKDGTLTGTYLSAVGDVYVPYPLSGRYNLQPPAGQGVALGWAVSWENSKIHSATTWSGQFFSESSPVILTQWLLSSSTAEGDVWESTLVGNDSFTKTAPTEQQIAHAQLHCRAPRLK
modifications: Synthetic TM2 K33TK37AR104E
[1]
  pI observed: 5.9 to 6.0

B3: TM2 K141E: TM2 mutant in which lysine at position 141 was replaced with glutamic acid; SEQ ID NO: 10 (protein)
chain: MSDVQSSLTGTWYNELNSKMELTANKDGTLTGKYLSKVGDVYVPYPLSGRYNLQPPAGQGVALGWAVSWENSKIHSATTWSGQFFSESSPVILTQWLLSSSTARGDVWESTLVGNDSFTKTAPTEQQIAHAQLHCRAPRLE
modifications: Synthetic TM2 K141E
[1]
  pI observed: 6.6 to 7.2
Human serum protein
  decrease of adsorption to human serum protein compared to the wild type TM2: 40%
  non-specific binding to human serum protein compared to TM2: significantly low
  non-specific binding and adsorption, % of that of the wild type TM2: about 60%
  Non-specific binding of serum protein (%): 58%

B4: TM2 K19T: TM2 mutant in which lysine at position 19 is replaced with threonine; SEQ ID NO: 18 (protein)
chain: MSDVQSSLTGTWYNELNSTMELTANKDGTLTGKYLSKVGDVYVPYPLSGRYNLQPPAGQGVALGWAVSWENSKIHSATTWSGQFFSESSPVILTQWLLSSSTARGDVWESTLVGNDSFTKTAPTEQQIAHAQLHCRAPRLK
modifications: Synthetic TM2 K19T
[1]
  pI observed: 6.6 to 7.5

B5: TM2 D40N: TM2 mutant in which aspartic acid at position 40 was replaced with asparagine; SEQ ID NO: 20 (protein)
chain: MSDVQSSLTGTWYNELNSKMELTANKDGTLTGKYLSKVGNVYVPYPLSGRYNLQPPAGQGVALGWAVSWENSKIHSATTWSGQFFSESSPVILTQWLLSSSTARGDVWESTLVGNDSFTKTAPTEQQIAHAQLHCRAPRLK
modifications: Synthetic TM2 D40N
[1]
  pI observed: 9.7
[2]
  biotin-binding ability (affinity) compared to the wild type TM2: increased; also recorded: enhanced
[2]; dissociation monitored for 60 minutes
  dissociation from biotin-LC-BSA: not dissociated

B6: TM2 K33TK37A: TM2 mutant, lysine 33 replaced with threonine and lysine 37 with alanine; SEQ ID NO: 12 (protein)
chain: MSDVQSSLTGTWYNELNSKMELTANKDGTLTGTYLSAVGDVYVPYPLSGRYNLQPPAGQGVALGWAVSWENSKIHSATTWSGQFFSESSPVILTQWLLSSSTARGDVWESTLVGNDSFTKTAPTEQQIAHAQLHCRAPRLK
modifications: Synthetic TM2 K33TK37A
[1]
  pI observed: 6.2

B7: TM2 K73Q: TM2 mutant in which lysine at position 73 was replaced with glutamine; SEQ ID NO: 6 (protein)
chain: MSDVQSSLTGTWYNELNSKMELTANKDGTLTGKYLSKVGDVYVPYPLSGRYNLQPPAGQGVALGWAVSWENSQIHSATTWSGQFFSESSPVILTQWLLSSSTARGDVWESTLVGNDSFTKTAPTEQQIAHAQLHCRAPRLK
modifications: Synthetic TM2 K73Q
[1]
  pI observed: 7.7
Human serum protein
  decrease of adsorption to human serum protein compared to the wild type TM2: 40%
  non-specific binding to human serum protein compared to TM2: significantly low
  non-specific binding and adsorption, % of that of the wild type TM2: about 60%
  Non-specific binding of serum protein (%): 55%

B8: TM2 R104E: TM2 mutant in which arginine at position 104 was replaced with glutamic acid; SEQ ID NO: 8 (protein)
chain: MSDVQSSLTGTWYNELNSKMELTANKDGTLTGKYLSKVGDVYVPYPLSGRYNLQPPAGQGVALGWAVSWENSKIHSATTWSGQFFSESSPVILTQWLLSSSTAEGDVWESTLVGNDSFTKTAPTEQQIAHAQLHCRAPRLK
modifications: Synthetic TM2 R104E
[1]
  pI observed: 7.0 to 7.5
Human serum protein
  decrease of adsorption to human serum protein compared to the wild type TM2: 10%
  Non-specific binding of serum protein (%): 90%
